Reference: the nanobody polyreactivity screen of Harvey et al. (2022)

Assay: yeast display, Sf9 membrane polyspecificity reagent, FACS + sequencing; frameworks hold sequencing errors
How it was run: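 Nanobodies from a synthetic yeast display library (Saccharomyces cerevisiae BJ5465), induced 36–48 hours with galactose, were stained 1 hour at 4 °C with 10% biotinylated, detergent-solubilized Sf9 membrane reagent, enriched on streptavidin microbeads, then FACS-sorted. Anti-HA (expression) and streptavidin (reagent binding) fluorescence set low and high (top ~1%) gates. Polyreactivity labels come from the gate of origin. Genes were colony-PCR amplified, MiSeq 2 × 250 sequenced and filtered by CDR length.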

Row | Sequence | polyreactivity (PSR sort gate)
1 | QVQLVDSGGGLVQAGGSLRLSCAASGLTFSKYAMGWYRQAPGKERELVATITRRGSSTYYADSVKGRFTISRDNAKNTVYLQMNSLKPEDTAVYYCNAVGVRRAIGYPSQTEYGYWGQGTQVTVSS | high polyreactivity
2 | QVQLVESGGGLVQAGGSLRLSSAASGSTFYRYAMGWYRQAPGKERELVAAISRSGGNTFYADSVKGRFTISRDNAKNTVYLQMNSLKPEDTAVYYCAALRSWYGQTSGMDYWGQGTQVTVSS | high polyreactivity
3 | QVQLVESGGGLVQAGGSLRLSCAASGIIFVKYVMGWYRQAPGKERELVAAITGTGRTNYADSVKGRFTISRDNAKNTVYLQMNSLKPEDTAVYYCNARQAGTRYKYGYYGRYYWGQGTQVSVSS | high polyreactivity
4 | QVQLVESGGGLVQAGGSLRLSCAASGRTFRTNAMAWYRQAPGKERELVAAITSDGTYYADSVKGRFTISRDNAKNTVYLQMNSLKPEDTAVYYWNVDDRENRDDYWGQGTQVTVSS | low polyreactivity
5 | QVQLVESGGGLVQEGGSLRLSCAASVFIIDYYAMGWYRQAPGKERELVASISYNSVSTTYADSVKGRFTISRDNAKNTVYLQMNSLKPEDTAVYYCAATSWYWAYTYYYWGQGTQVTVSS | low polyreactivity
6 | QVQLVESGGGLVQAGGSLRLFCAASGSTFISYAMGWYRQAPGKERELVAAISSSGGSTYYAYSVKGRFTISRDNAKNNVYLQMNSLKPEDTAVYYCAAEAVYYRSWRYYYCGQGTQVTVSS | high polyreactivity
7 | QVQLVESGGGLVQAGGSLRLSCAASGSIFSGYAMGWYRQAPGKERELVAAITWRGGSTYYADSVKGRFTISRDNAKNTVYLQMNSLKPEDTAVYYCARVWAWSRYDYWGQGTEVTVSS | high polyreactivity
8 | QVQLVESGGGLVQAGGSLRLSCAASGRIFYKYAMGWYRQAPGKERELVAAISYSGGSTYYADSVKGRFTISRDNAKNTVYLQMKSLKPEDTAVYYCNAKPPYGVRSWGDYWGQGTQVTVSS | low polyreactivity
9 | QVQLVESGGGLVQAGGSLRLSCAASGSNFQRYTMGWYSQAPGKERELVAAITSRSGRTYYADSVKGRFTISRDNAKNTVYLQMNSLKPEDTAVYYCATVPYDQTRGYKYDYWGQGTQVTVSS | high polyreactivity
10 | QVQLVESGGGLVQAGGSLRLRCAASGFTFYHYAMGWYRQAPGKERELVAAITWSGGDTYYADSVKGRFTISRDNAKNTVYLQMNSLKPEDTAVYYCNADDPPGAPYYDSFDYRGDYWGQGTQVTVSS | low polyreactivity
11 | QVQLVESGGGLVQAGGSLRLSCAASGIILYDYAMGWYRQAPGKERELVAGINRSGGITYYADSVKGRFTISRDNAKNTVYLQMNSLKPEDTAVYYCNAVFRYGATRSYRYDYWGQGTQVTVSS | high polyreactivity
12 | QVQLVESGGGLVQAGGSLRLSCAASGRTFDNNAMGWYRQAPGKERELVAAINWSGVRTYYADSVKGRFTISRDNAKNTVYLQMNSLKPEDTAVYYCNTVSASYYYRYNSWGQGTQVTVSS | high polyreactivity
13 | QVQLVESGGGLVQAGGSLRLSCAASGGTFGVNAMGWYRQAPGKDRELVAAISSSGGRTYYADSVKGRFTISRDNAKNTVYLQMNSLKPEDTAVYYCAARNYFWGQGTQVTVSS | low polyreactivity
14 | QVQLVESGGGLVQAGGSLRLICAASGSILQRNAMGWYRPAPGKERELVAAISWSGDNTYYADSVKGRFTISRDNAKNTVYLQMNSVKPEDTAVYYCATDADIYFQEYDYWGQGTQVTVSS | low polyreactivity
15 | QVQLLESGGGLVQAGGSLRLSCAASGRIFLRYVMGWYRQAPGKERELVAAIRSNGGSTYADSVKGRFTSSRDNAKNTVYLHMNSLKPEDTAVYYCAARYVITKGSFVVGYGYWGQGTQVTVSS | high polyreactivity
16 | QVQLVESGGGLVQAGGSLRLSCAASGSIFRPYTMGWYRQAPGKERELVAAITGSGGSTYYADSVKGRFTISRDNAKNTVYLQMNSLKPEDTAVYYCNAGWRVWGYSGSYYWFNYWGQGTQVTVSS | high polyreactivity

Row | Sequence | polyreactivity (PSR sort gate)
17 | QVQLVESGGGLVQAGGSLRLSCAASGSIFDSYAMGWYRQAPGKERELVASISYRGGSTYYADSVKGRFTISRDNAKNTVYLQMNSLKPEDTAVYYCAATPGYHYRSWRYYYWGQGTQVTVSS | high polyreactivity
18 | QVQLVESGGCLVQAGGSLRLSCAASGSIFAYYAMGWYRQAPGKERELVAAITSGDSTYYADSVKGRFTISRDNAKNTVYLQMNSLKPEDTAVYYCAADHIWFYFYLYDYWGQGTQVTVSS | low polyreactivity
19 | QVQLVESGGGLVQAGGSLRLSCAASGRTFGYYAMVWYRQAPGKERELVAAISTSGGGTYYADSVKGRFTISRDNAKNTVYLQMNSLKPEDTAVYYCNRDSRVLEGDYWGQGTQVTVSS | low polyreactivity
20 | QVQLVESGGGLVQAGGSLRLSCAASGITFGYYAMGWSRQAPGKERELVAAISWSGGRTYYADSVKGRFTMSRDNAKNTVYLQMNSLKPEDTAVYYCAADYWYYRGGYPMDYWGQGTQVTVSS | high polyreactivity
21 | QVQLVESGGGLVQAGGSLRLSCAASGFIFRSNAMGWYRQAPGKERELVAAITRGDSTNYADSVKGRFTITRDNAKNTDYLQKNSLKPEDTAVYYCAAGRSYHSGVHHYRKRNYWGQGTQVTVSS | high polyreactivity
22 | QVQLVESGGGIVQAGGSLRLSCAASGSTYYGYTMGWYRQAPGKERELVAVITSGGSTYYADSVKGRFTISRDNAKNTVYLQMNILKPEDRAVYYCAKRYGYPAYGRPWRIGRTYDYWGQGTQVTVSS | low polyreactivity
23 | QVQLVESGGGLVQAGVSLRLSCAASGRIFYAYAMGWYRKAPGKERELVAAISSSGRTYYADSVKGRLTISRDNAKNTVYLQMNSLKPEDTAVYYCAVDWSRQAHKFNYWGQGTQVTVSS | high polyreactivity
24 | QVQLVESGGGLVQAGGSLRLSCAASGRTFRTNAMGWYRQAPGKERELVAAISTGGGITNYADSVKGRFTISRDNAKNTVYLQMNSLKPEDTAVYYCNADIYTWFQIGGYQYDYWGQGTQVTVSS | low polyreactivity
25 | QVQLVESGGGLVQAGGSLRLSCAASGRNFVYNAMGWYRQAPGKERELVAAITWGGGSTYYADSVKGRFTISRDKAKNTVYLQMNSLKPEDTAVYYCAADGVRKFPNSRYDYWGQGTQVTVSS | low polyreactivity
26 | QVQLVESGGGLVQAGGSLRLSCAASGSTFFGNAMGWYRQAPGKERELVAAITSGGSTNYADSVKGRFTFSRDNAKNTVSLQMNSLKPEDTAVYDCAKPSRWGWTGFYAYDYWGQGTQVTVSS | low polyreactivity
27 | QVQLVESAGGLVQAGGSLSLSCAASGLTFPWYAMGWYRQAPGKERELVAAISSSSGSTYYADSVKGRFTISRDNAKNTVYLQMNSLKPEDTAVYYCAAGYPGGHYDYWGQGTQVTVSS | high polyreactivity
28 | QVQLVESGGGLVQAGGSLRLSCAASGYILYINTMGWYRQAPGKERELVAAITYSGASTYYADSVKGRFTISRDNAKNTVYLQMNSLKPEDNGVYYCAADGYYGGYNYWGQGTQVTVSS | low polyreactivity
29 | QDQHVESGGGLVQAGGSLRLSCAASGLTFDQYAMGWYRQAPGKERELVAAISGSDSTYYADSVKGRFTISRDNAKNTVYLQMNSLKPEDTAVYYCAASGDYVNIITGERFDARLYDYWGQGTQVTVSS | low polyreactivity
30 | QVQLVESGGGLVQAGGSLRLSCAASGFIFTKYVMGWYRQAPGKERELVAAISSGGGRTYYADSVKGRFTISRDNGKYTVYLQMNSQKPEDTAVYYCNIDDERGKLYYWGQGTQVTVSS | high polyreactivity
31 | QVQLVESGGGLVQAGGSLRLSCAASGFTFGPKAMGWYRQAPVKERELVAAITFRGDSTYYADSVKVRFTISRDYAKNTVYLQMNCLKPEDTAVYYCATHDRWHHRSLPYEYWGQGTQVTVSS | low polyreactivity
